Laboratory results: the supplement of paper PMC7877785
± gives the uncertainty stated by the source.

Experiment: self-splicing fitness, log relative to wild type (ln ratio); higher = more splicing; Tetrahymena group I intron in knt gene, E. coli kanamycin selection, DiMSum; sequences stand for … in CUCUCU…GGAGGGAAAAGUUAUCAGGCAUGCACCUGGUAGCUAGUCUUUAAACCAAUAGAUUGCAUCGGUUUAAAAGGCAAGACCGUCAAAUUGCGGGAAAGGGGUCAACAGCCGUUCAGUACCAAGUCUCAGGGGAAACUUUGAGAUGGCCUUGCAAAGGGUAUGGUAAUAAGCUGACGGACAUGGUCCUAACCACGCAGCCAAGUCCUAAGUCAACAGAUCUUCUGUUGAUAUGGAUGCAGUUCACAGACUAAAUGUCGGUCGGGGAAGAUGUAUUCUUCUCAUAAGAUAUAGUCGGACCUCUCCUUAAUGGGAGCUAGCGGAUGAAGUGAUGCAACACUGGAGCCGCUGGGAACUAAUUUGUAUGCGAAAGUAUAUUGAUUAGUUUUGGAGUACUCGUGGUCG
Procedure, shortened: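 Six replicate transformations of E. coli BL21(DE3) with a pET-22b(+) library were grown overnight at 37°C or 30°C. The library randomised all eight P1ex-region intron nucleotides, the intron lying in the knt kanamycin-resistance gene, and plates were LB agar with or without 25 μg/mL kanamycin plus 100 μg/mL carbenicillin, 50 μM IPTG and 0.2% rhamnose. Pooled colonies were amplicon-sequenced on an Illumina HiSeq 2500, and fitness is the DiMSum error-weighted combination of wild-type-normalised replicate fold changes, kanamycin versus none.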

Sequence | self-splicing fitness (ln) (30 °C) | self-splicing fitness (ln) (37 °C)
UUGUAGCAAUAUUACGAGAA | -1.54 ± 0.3 | -1.42 ± 0.3
AGCAAGCAAUAUUACGAACA | -0.765 ± 0.099 | -0.407 ± 0.12
GUAGAGCAAUAUUACGCUUG | -0.837 ± 0.12 | -0.536 ± 0.19
CGGGAGCAAUAUUACGAGAC | -3.18 ± 0.45 | -2.45 ± 0.44
AUGCAGCAAUAUUACGCAUC |  | -2.67 ± 0.28
ACAUAGCAAUAUUACGAUGC | -3.16 ± 0.15 | -0.811 ± 0.12
AGUCAGCAAUAUUACGCCUG | -2.49 ± 0.16 | -0.867 ± 0.11
UAAUAGCAAUAUUACGCGGA |  | -1.82 ± 0.19
CAAGAGCAAUAUUACGCUCG | -2.16 ± 0.44 | -1.26 ± 0.41
AGAUAGCAAUAUUACGGAGU | -3.25 ± 0.15 | -2.33 ± 0.15
ACAUAGCAAUAUUACGUGAU | -1.7 ± 0.061 | -1.2 ± 0.088
CAGCAGCAAUAUUACGACUC | -0.922 ± 0.091 | -0.00599 ± 0.14
UAGGAGCAAUAUUACGUGCG | -2.89 ± 0.17 | -0.951 ± 0.16
GUGUAGCAAUAUUACGUCCG | -3.16 ± 0.33 | -0.647 ± 0.22
CUAUAGCAAUAUUACGGUCG | 0.227 ± 0.073 | 0.586 ± 0.11
AGAAAGCAAUAUUACGCCAG | -2.29 ± 0.2 | -0.433 ± 0.17
CUUAAGCAAUAUUACGUCCA | -2.93 ± 0.48 | -2.34 ± 0.46
UAAUAGCAAUAUUACGAUAU | -3.99 ± 0.47 | -1.52 ± 0.25
GGCAAGCAAUAUUACGAACU | -1.18 ± 0.16 | 0.413 ± 0.14
CUAUAGCAAUAUUACGAUCU | -3.99 ± 0.39 | -1.91 ± 0.33
AUUCAGCAAUAUUACGCAGU | -2.18 ± 0.17 | 0.359 ± 0.15
AAAGAGCAAUAUUACGGUAC | -4.14 ± 0.24 | -2.57 ± 0.2

Sequence | self-splicing fitness (ln) (30 °C) | self-splicing fitness (ln) (37 °C)
CGAAAGCAAUAUUACGGAUU | -3.5 ± 0.2 | -2.63 ± 0.19
CAUGAGCAAUAUUACGCCUU | -3.02 ± 0.26 | -1.86 ± 0.24
ACCAAGCAAUAUUACGGUAC | -3.83 ± 0.22 | -1.16 ± 0.15
CGCAAGCAAUAUUACGACGG | 0.00768 ± 0.061 | 0.452 ± 0.08
UGUCAGCAAUAUUACGCUGG | -4.05 ± 0.39 | -2.19 ± 0.34
GAACAGCAAUAUUACGAACU | -0.795 ± 0.07 | 0.239 ± 0.09
CUUUAGCAAUAUUACGUUUG | -2.43 ± 0.17 | -1.5 ± 0.17
UCUGAGCAAUAUUACGGGUA |  | -2.42 ± 0.34
UUCUAGCAAUAUUACGAAGC |  | -1.2 ± 0.45
AGCCAGCAAUAUUACGGUAC | -2.97 ± 0.2 | -1.24 ± 0.13
CAUGAGCAAUAUUACGCCAU | -3.43 ± 0.3 | 
UAAUAGCAAUAUUACGCUCU | -1.03 ± 0.14 | -0.42 ± 0.18
AAAAAGCAAUAUUACGGAUC | -0.895 ± 0.068 | -0.418 ± 0.092
UCUCAGCAAUAUUACGCCGC | -2.99 ± 0.34 | -1.52 ± 0.36
GGCAAGCAAUAUUACGUCUU | -0.676 ± 0.066 | -0.385 ± 0.071
UUUUAGCAAUAUUACGCAUA | -1.52 ± 0.27 | -0.671 ± 0.21
UAUUAGCAAUAUUACGGCCG | -0.0472 ± 0.19 | 0.135 ± 0.31
UUCCAGCAAUAUUACGUUGG | -3.19 ± 0.21 | -2.53 ± 0.21
GAAUAGCAAUAUUACGCUUU | -2.02 ± 0.15 | -1.35 ± 0.16
UUUGAGCAAUAUUACGAAUU | -2.47 ± 0.23 | -2.01 ± 0.3
UCUGAGCAAUAUUACGAAGG | -3.05 ± 0.21 | -0.953 ± 0.15
